Data published in PMC4486934.

System: var2CSA (PfEMP1) (Plasmodium falciparum CS2)
Assay: cell binding, microfluidic partitioning and qPCR
Conditions: 2'-fluoro pyrimidines, TBB: 20 mM HEPES pH 7.4, 150 mM NaCl, 2 mM CaCl2, room temperature (cell binding); for binding signal: CS2 vs uninfected RBCs

Sequence	binding signal (100 nM, P = 0.0002, BLI in …)	Kd (apparent Kd on CS2 infected RBCs, no enrichment on DC-J, BLI in TBB)	binding signal (defines non-specific threshold, BLI in TBB)
GGGAGCUCAGAAUAAACGCUCAACAACGGAUCACACGCAAGCGAAUCUAUGUCCUUCGGGUCUAAGGGUCGCUUUCGACAUGAGGCCCGGAUCCGGC [8.1-1]	3.12 ddCp	14 nM	
GGGAGCUCAGAAUAAACGCUCAAAUGUCUCCAGCUCUUGUGGCGAACCCAAGCGGGUUGACCAGAAUGCAUCAUUCGACAUGAGGCCCGGAUCCGGC [scr8.1-1]			1.24 ddCp
